Assay [1] addresses SARS-CoV-2 spike protein receptor binding domain (RBD) (SARS-CoV-2, UniProt P0DTC2 319-539). In words: ELISA on plate-coated RBD.
Assay [2] addresses SARS-CoV-2 spike protein receptor binding domain (RBD), wild type (SARS-CoV-2, UniProt P0DTC2 319-539). Description: ELISA, RBD protein coated on plate, antibody titrated.

B1: C047 (antibody, V domains shown)
VH: QVQLQESGPGLVKPSETLSLTCTVSGGSISSTTYYWDWIRQSPGKGLEWIGSIFYTGITYYSPSLKSRVTISVDTSKNQFSLRLNSMTAADTAVYYCARRLRQLWFGPWFDPWGQGTLVTVSS
VL: QSALTQPPSASGSPGQSVTISCTGTRSDVGDYNYVSWYQQHPDKAPKLIIYEVTKRPSGVPDRFSGSKSGNTASLTVSGLQAEDEADYYCSSYAGSNNVMFGGGTKLTVL
B1 gave an EC50 in assay [1] of 0.0111 µg/mL.

B2: C710 (antibody, V domains shown)
VH: QVQLQESGPGLVKPSETLSLTCIVSGGSINSTTYYWDWIRQSPGKGLEWIGSIFYTGITYYSPSLKTRVTISVDTSKNQFSLRLNSMTAADTAVYYCARRLRQLWFGPWFDPWGQGTLVTVSS
VL: QSALTQPPSASGSPGQSVTISCTGTRSDVGDYNYVSWYQQHPDKAPKLIIFEVTKRPSGVPDRFSGSKSGNTASLTVSGLQAEDEADYYCSSYAGSSNVMFGGGTKLTVL
In the case of B2, in assay [1], it took 0.0178 µg/mL to reach a half-maximal effect (EC50).

B3: C049 (antibody, V domains shown)
VH: QVQLQESGPGLVKPSETLSLTCTVSGGSVSSGTFYWSWIRQPPGKGLEWIGYIHYSGSTNYNPSLKSRVTISVDTSKNQFSLRLSSVTAADTAVYYCARESFYYDRSGYYGSDAFDIWGQGTMVTVSS
VL: DIQMTQSPSTLSSSVGDRVTITCRASQNISRWLAWYQQKPGKAPKLLIYKASTLESGVPSRFSGSGSGTKFTLTISSLQPDDFATYYCQQYNSYLYTFGQGTKLEIK
As to B3, in assay [1], the EC50 was found to be 0.00409 µg/mL.

B4: C525 (antibody, V domains shown)
VH: EVQLVESGGRLVQPGRSLRLSCAASGFTFDDYAIHWVRQAPGKGLEWVSGISWNSGSIGYADSVRGRFTISRDNAKNSLYLQMNSLRAEDTALYYCAKGLDSSSSASPDYWGQGTLVTVSS
VL: DIQMTQSPSSVSASVGDRVTITCRASQDISSWLAWYQQKPGKAPKLLIYLASSLQSGVPSRFSGSGSGTDFILTISSLQPEDFGTYYCQQGNSFPLTFGGGTKVEIK
Consider B4, for which, in assay [2], it took 0.0106 µg/mL to reach a half-maximal effect (EC50).

B5: C529 (antibody, V domains shown)
VH: EVQLLESGGGLVQPGGSLRLSCAASGFTFNNYAMNWVRQAPGRGLEWVSGISGSGANTYYADSVKGRFTISRDNPKNTLSLQMNSLRAEDTALYYCAKVLSPTYYDSWSGPDAFDFWGQGTMVTVSS
VL: DIQMTQSPSTLSASVGDRVTITCRASQTISPWLAWYQQKPGKAPNLLIYKASSLESGVPSRFSGSGSGTEFTLTISSLQPDDFATYYCQQYNSYSSWTFGQGTKVEIK
In turn, B5 had an EC50 in assay [2] of 0.008 µg/mL.

B6: C523 (antibody, V domains shown)
VH: QVQLQESGPGLVKPSETLSLTCTVSGASISSHYWSWIRQPPGKGLEWIGYIHYIGSTNYNPSLKSRVTILLDTSKNQFSLRLRSVTAADTAVYYCARGWPYCGVDCYSGFDYWGQGTLVTVSS
VL: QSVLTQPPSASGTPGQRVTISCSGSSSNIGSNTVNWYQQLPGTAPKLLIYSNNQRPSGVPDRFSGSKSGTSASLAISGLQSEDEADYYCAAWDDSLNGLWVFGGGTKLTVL
On to B6, for which, in assay [2], the EC50 amounted to 0.00908 µg/mL.

B7: C598 (antibody, V domains shown)
VH: QVQLVQSGPEVKKPGTSVKVSCKASGFTFSSSAVQWVRQARGQRLEWIGWIVVGSGNTNYAQKFQERVTITRDMSTSTAYMELSSLRSEDTAVFYCAAPYCNVTTCFDGFNIWGRGTMVTVSS
VL: EIVLTQSPGTLSLSPGERATLSCRASQSVRSSYFAWYQQKPGQAPRLLIYAASSRATGIPDRFSGSGSGTDFTLTISRLEPEDFALYYCQQYGSSPWTFGQGTKVEIK
Take B7: the EC50 in assay [2] amounted to 0.00378 µg/mL.

B8: C528 (antibody, V domains shown)
VH: EVQLVESGGGLVQPGGSLRLSCAASGFTFRNYDMHWVRQVAGKGLEWVSAIGTSGDTYYPDSVKGRFTISRENAKNSVYLQMNNLRAGDTAVYFCVRDREISGWTGWYFDLWGRGTLVTVSS
VL: DIQMTQSPSSLSASVGDRVTITCRASQTIHNYLNWYQQIPGKAPRLLIYATNTLQSGVPSRFSGSGSGTDFTLTITGLQPEDFATYYCQQSYSTPPITFGQGTRLEIK
In assay [2], B8 returned an EC50 of 0.00566 µg/mL.

B9: C704 (antibody, V domains shown)
VH: VQLVESGGGVVQPGRSLRLSCAASGFTFSRYGMHWVRQAPGKGLEWVAVSSYDGSNEYYANSVKGRFTISRDNSKNTLYLQMNSLRAEDTAVYYCAKTGASYCGGDCPFHFDYWGQGTLVTVSS
VL: IRMTQSPSSLSASVGDRVTITCQASQDINNYLNWYQQKPGKAPKLLIYDASDLETGVPSRFSGGGSGTDFTFTISSLQPEDIATYYCQHYNNLPITFGQGTRLEIK
On to B9, for which, in assay [1], the EC50 is 0.0134 µg/mL.

B10: C524 (antibody, V domains shown)
VH: EVQLVESGGDLIQPGGSLRLSCAASGFSVSNSYMSWVRQAPGKGLEWVSIIYSGGSTYYADSVKGRFTISRDNSKNTLYLQMNSLRAEDTAVYFCAKTPRGDYDSSGTSAYWGQGTLVTVSS
VL: QLVLTQSPSASASLGASVNLTCTLSSGHSSYAIAWHQQQPEKGPRFLMKLSSDGSHNKGDGIPDRFSGSSSGAERFLTISSLQSEDEADYYCQTWGIGSDWVFGGGTKLTVL
In the case of B10, the EC50 in assay [2] turned out to be 0.005 µg/mL.

B11: C527 (antibody, V domains shown)
VH: QVQLVESGGGVVQPGRSLRLSCAASGFTFSSYGMHWVRQAPGKGLEWVALIGYDGTDKYYAENVKGRFTISRDNSKNTLFLQMNSLRGGDTAVYLCARDGIPFRYGMDVWGQGTTVTVSS
VL: DIQMTQSPSTLSASVGDRVTITCRASQSIDIWLAWYQQKPGKAPKFLIHKASTLESGVPSRFSGSGSGTEFTLTISSLQPDDFATYYCQHYHSYSGTFGQGTKVEIK
In assay [2], B11 yielded an EC50 of 0.0134 µg/mL.

B12: C046 (antibody, V domains shown)
VH: EVQLVESGGGLAQPGRSLRLSCAASGFTFDDYAMHWVRQAPGKGLEWVSGINWNSGSLGYADSVKGRFTISRGIAKNSLYLQMNSLRPEDTAFYYCAKAGVRGIAAAGPDLNFDYWGQGTLVTVSS
VL: EIVLTQSPATLSLSPGERATLSCRASQSVSSYLAWYQQKPGQAPRLLIYDASNRATGIPARFIGSGSGTDFTLTISSLEPEDFAVYYCQQRITFGQGTRLEIK
The molecule B12 showed a concentration giving a half-maximal response (EC50) in assay [1] of 0.00402 µg/mL.

B13: C707 (antibody, V domains shown)
VH: EVQLVESGGGLVKPGGSLRLSCAASGFTFSSYSMNWVRQAPGKGLAWVSSISSSNNIIYYADSVKGRFTISRDDAKDSLYLHMKSLRADDTAVYFCARVPSWAPYQLLPGPFDYWGQGILVTVSS
VL: IRMTQSPSSLSASVGDRVTITCQASQAIASYLSWYQHKPGRAPKLLIYDASNLEIGVPSRFSGSGSGTDFTFTISSLQSEDNATYYCQQYESLPGTFGGGTKVEIK
In assay [1], B13 gave an EC50 of 0.026 µg/mL.

B14: C530 (antibody, V domains shown)
VH: QVQLVESGGGVAQPGRSLRLSCAASGFTFSRYGMHWVRQAPGKGLEWVAVIWHDGSDKYCADFVKGRFTISRDNSKNTLYMQMDSLRAEDTAVYYCARGGRPDHETGIAVLGEYYFDSWGQGTLVTVSS
VL: SYELTQPPSVSVSPGQTARITCSGDAFPLQYGYWYQQKPGQAPVLVIYKDKERPSGISERFSGSSSGTTVTLTISGVQAEDEADYYCQSADTNGVVFGGGTSLTVL
As for B14, the EC50 in assay [2] was 0.0105 µg/mL.

B15: C526 (antibody, V domains shown)
VH: QVQLVQSGAEVKKPGASVKVSCKASGHTFTTYYLHWVRQAPGQGLEWMGRIDPSGGSTTYAQKFQGRVTMTRDTSTSTVYMELSSLRSEDTALYYCARGGYCGSTSCSPDDYFDYWGQGTLVTVSS
VL: SYELTQPPSVSVAPGKTARITCGGNNIGSKSVHWYQQKPGQAPVLVIYYDSDRPSGIPERFSGSNSGNTATLTISRVEAGDEADYYCQVWDSSSDHYYVFGTGTKVTVL
Molecule B15 came in with a concentration giving a half-maximal response (EC50) in assay [2] of 0.0182 µg/mL.

B16: C703 (antibody, V domains shown)
VH: EVQLLESGGGLVQPGGSLRLSCAGSGFTFSHYALSWVRQAPGKGLEWVSCISGTGGNSHYADSVKGRFTSSRDNSKNILYLQMNSLRAEDTAVYFCAKGGDFWSGYLIPFDSWGQGTLVTVSS
VL: SYELTQSPSVSVAPGKTARITCGGDSIGSKNVHWYQQKPGQAPVLVMYYDNDRPSGIPERFSGYNSGNTATLSISRVEAGDEADYYCLVWDGSGDPWVFGGGTKLTVL
B16 had an EC50 in assay [1] of 0.0109 µg/mL.

B17: C531 (antibody, V domains shown)
VH: EVQLVESGGGLVQPGRSLRLSCVATGFTFDDFAMHWVRQAPGKGLEWVSGISWNGGIIGYVDSVKGRFTISRDNAKNSLYLQMNSLRPEDTALYYCVKGYRYYYDILTGYYNDAGAFDYWGQGTLVTVSS
VL: DIQSTQSPSFLSASVGDRVAITCRASQGISSYLAWYQQKPGKAPKLLIYPASTLQSGVPSGFSGSGSGTEFTLTISSLQPEDFATYYCQQLNDYPFTFGPGTKVDIK
As to B17, in assay [2], the EC50 came out at 0.00684 µg/mL.

B18: C532 (antibody, V domains shown)
VH: EVQLVQSGAEVKKPGESLKISCKGSGYRFTNYWIGWVRQMPGKGLEWIGNIFPGDSDSRYSPSFQGQVTISVDMSITTAYLHWSSLKASDTAIYYCARLSERWYSPFDSWGQGTLVTVSS
VL: EIVMTQSPATLSVSPGERATLSCRASQSVSSNLAWYQQKPGQAPRLLIYGASTRATGFPARFSGSGSGTEFTLTISSLQSEDFAVYFCQQYNNWPPGGFTFGPGTKVDIK
In turn, B18 registered an EC50 in assay [2] of 0.001 µg/mL.

B19: C706 (antibody, V domains shown)
VH: EVQLVESGGGLVKPGGSLRLSCAASGFTFSNVWMSWVRQAPGKGLEWVGRIKSKIDGGTTEYAAPVKGRFIISRDDSKNTLSLQMNSLKTEDTAVYYCTTDHGREPPVHWGQGTLVTVSS
VL: EIVLTQSPGTLSLSPGERASLSCRARQSVYSNYLAWYQHKSGQAPRLLFYGASSRATDIPDRFSASGSGTDFTLTISRLEPEDFAVYYCLQYGPSPTFGPGTRLEIK
Turning to B19, it took 0.0735 µg/mL to reach a half-maximal effect in assay [1] (EC50).

B20: C048 (antibody, V domains shown)
VH: VQLQESGPGLVKPSETLSLTCAVSGGSVSSGNYYWNWIRQPPGKGLEWIGYIYYSGSTNYNPSLKSRVTISVDTSKNQFSLKLNSVTAADTAVYHCARETYYYDSSGYYISDAFDIWGQGTMVTVSS
VL: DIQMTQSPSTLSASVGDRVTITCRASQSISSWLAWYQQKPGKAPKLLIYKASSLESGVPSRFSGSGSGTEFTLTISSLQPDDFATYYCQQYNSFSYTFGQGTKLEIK
The molecule B20 yielded an EC50 in assay [1] of 0.0048 µg/mL.

B21: C708 (antibody, V domains shown)
VH: EVQLVESGGGLVQPGGSLRLSCAASGFSFSTYWMSWVRQAPGKGLEWVADIKQDGSEKYFVDSVKGRFTISRDNAKNSLYLHLNSLRAEDTAVYYCAREMAGSGNYYWFGYGMDVWGQGTTVTVSS
VL: IRMTQSPSSVSASVGDRVTITCRASQGISSWLAWYQQKPGKAPKLLIYAASSLQSGVPSRFSGSESGTDFTLTISSLQPEDFATYYCQQANSFPLTFGGGTKVEIK
B21: in assay [1], the EC50 was 0.13 µg/mL.

The values above are taken from patent publication US20220195015A1 (published 2022).
